Measured values reported in article PMC8889352.

Biological target: IL-12 receptor

Chain of 18/12/TxM triple-cytokine fusion protein (Q13261 whole entry, looked up, the tested form may be a part): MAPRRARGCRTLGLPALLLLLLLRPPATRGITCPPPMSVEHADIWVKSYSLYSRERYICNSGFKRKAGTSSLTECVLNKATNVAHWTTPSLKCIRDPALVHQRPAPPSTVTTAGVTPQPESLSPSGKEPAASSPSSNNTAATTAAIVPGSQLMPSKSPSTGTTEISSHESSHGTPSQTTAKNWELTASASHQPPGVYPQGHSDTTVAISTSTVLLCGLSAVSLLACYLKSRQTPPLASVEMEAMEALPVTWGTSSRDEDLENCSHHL
Chain of 18/12/TxM triple-cytokine fusion protein (P29459 whole entry, looked up, the tested form may be a part): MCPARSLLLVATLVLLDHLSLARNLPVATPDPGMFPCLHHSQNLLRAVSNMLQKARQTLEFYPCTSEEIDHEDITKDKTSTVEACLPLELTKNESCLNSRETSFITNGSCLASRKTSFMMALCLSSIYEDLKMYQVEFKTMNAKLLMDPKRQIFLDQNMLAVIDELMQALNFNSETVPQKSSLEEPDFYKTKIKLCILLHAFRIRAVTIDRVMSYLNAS
Chain of 18/12/TxM triple-cytokine fusion protein (P29460 whole entry, looked up, the tested form may be a part): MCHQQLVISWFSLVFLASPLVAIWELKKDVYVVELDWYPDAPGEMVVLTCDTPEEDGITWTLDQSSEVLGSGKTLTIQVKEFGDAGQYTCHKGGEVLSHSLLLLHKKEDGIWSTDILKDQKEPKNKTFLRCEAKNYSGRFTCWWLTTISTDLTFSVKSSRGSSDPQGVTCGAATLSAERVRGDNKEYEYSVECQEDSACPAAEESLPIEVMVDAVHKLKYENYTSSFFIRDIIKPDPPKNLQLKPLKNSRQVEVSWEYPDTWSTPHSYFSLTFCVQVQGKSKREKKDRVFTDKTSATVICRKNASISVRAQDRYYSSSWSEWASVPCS
Chain of 18/12/TxM triple-cytokine fusion protein (Q14116 whole entry, looked up, the tested form may be a part): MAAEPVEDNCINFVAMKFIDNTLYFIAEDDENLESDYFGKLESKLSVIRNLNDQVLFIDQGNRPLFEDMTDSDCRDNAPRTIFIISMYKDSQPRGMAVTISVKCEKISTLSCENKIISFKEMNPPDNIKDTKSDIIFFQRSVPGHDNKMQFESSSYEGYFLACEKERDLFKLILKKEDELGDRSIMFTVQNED

18/12/TxM triple-cytokine fusion protein (from UniProt Q14116 37-193; P29460 23-328; P29459 23-219; Q13261 31-95) (complex)
activation of IL-12 reporter HEK-Blue (HEK12) cells (STAT4-inducible SEAP), EC50: 99.1 pM
